How the values were obtained:
[1] = test system: RsuA wild type (Escherichia coli); test: filter binding; conditions: 4 mM Mg2+; fit 0-2 uM, bound fraction falls above 2 uM; FRET: 80 mM K-Hepes pH 7.6, 330 mM KCl, 0-20 mM MgCl2, 2 nM RNA folded at 37 C. Filter binding: 80 mM K-Hepes pH 7.6, 50 mM KCl, 4 mM MgCl2, 6 mM …
[2] = test system: RsuAΔN (S4-like domain truncation) (Escherichia coli); test: filter binding; conditions: 4 mM Mg2+; fit 0-15 uM; FRET: 80 mM K-Hepes pH 7.6, 330 mM KCl, 0-20 mM MgCl2, 2 nM RNA folded at 37 C. Filter binding: 80 mM K-Hepes pH 7.6, 50 mM KCl, 4 mM MgCl2, 6 mM …
[3] = test system: RsuA G127C-Cy5 (Escherichia coli); test: FRET; conditions: 4 mM Mg2+, FRET: 80 mM K-Hepes pH 7.6, 330 mM KCl, 0-20 mM MgCl2, 2 nM RNA folded at 37 C. Filter binding: 80 mM K-Hepes pH 7.6, 50 mM KCl, 4 mM MgCl2, 6 mM …; for binding signal: scale: fold higher affinity than wild type

Substance: 16S 5'-domain rRNA (filter binding)
- Kd [1]: 12 nM
- Kd [2]: 57 nM

Substance: 16S 5'-domain G505C:G506C
- binding signal [3]: > 30

Substance: 16S 5'-domain G505C
- binding signal [3]: > 30

Substance: 16S 5'-domain C507G
- binding signal (fold lower Kd than wild type (3.9 nM)) [3]: 390

Source: article PMC7356742
